# Results published in IntAct's records for PubMed 25096571.
# B1: Forkhead box protein P3 (Homo sapiens), Q9BZS1-1 (parent)
# chain: MPNPRPGKPSAPSLALGPSPGASPSWRAAPKASDLLGARGPGGTFQGRDLRGGAHASSSSLNPMPPSQLQLPTLPLVMVAPSGARLGPLPHLQALLQDRPHFMHQLSTVDAHARTPVLQVHPLESPAMISLTPPTTATGVFSLKARPGLPPGINVASLEWVSREPALLCTFPNPSAPRKDSTLSAVPQSSYPLLANGVCKWPGCEKVFEEPEDFLKHCQADHLLDEKGRAQCLLQREMVQSLEQQLVLEKEKLSAMQAHLAGKMALTKASSVASSDKGSCCIVAAGSQGPVVPAWSGPREAPDSLFAVRRHLWGSHGNSTFPEFLHNMDYFKFHNMRPPFTYATLIRWAILEAPEKQRTLNEIYHWFTRMFAFFRNHPATWKNAIRHNLSLHKCFVRVESEKGAVWTVDELEFRKKRSQRPSRCSNPTPGP
# Variants of: B1
# Conditions: with PIM1, P11309-1
row,effect of a mutation on the interaction,Variant
1,decreasing interaction strength,S418A
2,disrupting interaction strength,S418D

# Continued, variant first:
row,Variant,effect of a mutation on the interaction
1,S418G,increasing interaction strength
2,S418C,increasing interaction strength

# Variants of: B1
# Conditions: with PIM1, P11309-1
# Remark: another data set of the same source
row,effect of a mutation on the interaction,Variant
1,decreasing interaction strength,S422A
